Patent US10087225B2, “Formulation of MK2 inhibitor peptides” (MOERAE MATRIX, INC., priority 2015, dated 2018)

What was measured:
Experiment in all cases: Kinase Profiling Assay
NLK(h) = biological target: T1, NLK(h) (Homo sapiens, UniProt Q9UBE8); format: biochemical
T1 sequence (Q9UBE8 1-527): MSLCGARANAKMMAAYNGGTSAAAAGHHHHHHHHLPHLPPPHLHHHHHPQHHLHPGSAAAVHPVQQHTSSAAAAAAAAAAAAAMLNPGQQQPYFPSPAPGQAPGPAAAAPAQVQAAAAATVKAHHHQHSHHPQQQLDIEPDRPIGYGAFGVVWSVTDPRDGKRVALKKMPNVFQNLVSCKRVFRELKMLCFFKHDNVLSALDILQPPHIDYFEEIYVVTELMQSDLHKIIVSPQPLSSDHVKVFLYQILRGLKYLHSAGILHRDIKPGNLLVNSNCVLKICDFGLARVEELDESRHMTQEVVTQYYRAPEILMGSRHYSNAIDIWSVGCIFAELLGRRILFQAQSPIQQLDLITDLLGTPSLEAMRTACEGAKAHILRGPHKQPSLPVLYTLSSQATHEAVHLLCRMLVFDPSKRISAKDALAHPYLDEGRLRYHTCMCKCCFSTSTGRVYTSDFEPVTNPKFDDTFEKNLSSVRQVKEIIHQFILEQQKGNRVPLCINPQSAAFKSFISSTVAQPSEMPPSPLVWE

HIPK2(h) = HIPK2(h) (Homo sapiens, UniProt Q9H2X6); format: biochemical
Flt4(h) = Flt4(h) (Homo sapiens, UniProt P35916); format: biochemical
Sequence of Flt4(h) (P35916 25-1363): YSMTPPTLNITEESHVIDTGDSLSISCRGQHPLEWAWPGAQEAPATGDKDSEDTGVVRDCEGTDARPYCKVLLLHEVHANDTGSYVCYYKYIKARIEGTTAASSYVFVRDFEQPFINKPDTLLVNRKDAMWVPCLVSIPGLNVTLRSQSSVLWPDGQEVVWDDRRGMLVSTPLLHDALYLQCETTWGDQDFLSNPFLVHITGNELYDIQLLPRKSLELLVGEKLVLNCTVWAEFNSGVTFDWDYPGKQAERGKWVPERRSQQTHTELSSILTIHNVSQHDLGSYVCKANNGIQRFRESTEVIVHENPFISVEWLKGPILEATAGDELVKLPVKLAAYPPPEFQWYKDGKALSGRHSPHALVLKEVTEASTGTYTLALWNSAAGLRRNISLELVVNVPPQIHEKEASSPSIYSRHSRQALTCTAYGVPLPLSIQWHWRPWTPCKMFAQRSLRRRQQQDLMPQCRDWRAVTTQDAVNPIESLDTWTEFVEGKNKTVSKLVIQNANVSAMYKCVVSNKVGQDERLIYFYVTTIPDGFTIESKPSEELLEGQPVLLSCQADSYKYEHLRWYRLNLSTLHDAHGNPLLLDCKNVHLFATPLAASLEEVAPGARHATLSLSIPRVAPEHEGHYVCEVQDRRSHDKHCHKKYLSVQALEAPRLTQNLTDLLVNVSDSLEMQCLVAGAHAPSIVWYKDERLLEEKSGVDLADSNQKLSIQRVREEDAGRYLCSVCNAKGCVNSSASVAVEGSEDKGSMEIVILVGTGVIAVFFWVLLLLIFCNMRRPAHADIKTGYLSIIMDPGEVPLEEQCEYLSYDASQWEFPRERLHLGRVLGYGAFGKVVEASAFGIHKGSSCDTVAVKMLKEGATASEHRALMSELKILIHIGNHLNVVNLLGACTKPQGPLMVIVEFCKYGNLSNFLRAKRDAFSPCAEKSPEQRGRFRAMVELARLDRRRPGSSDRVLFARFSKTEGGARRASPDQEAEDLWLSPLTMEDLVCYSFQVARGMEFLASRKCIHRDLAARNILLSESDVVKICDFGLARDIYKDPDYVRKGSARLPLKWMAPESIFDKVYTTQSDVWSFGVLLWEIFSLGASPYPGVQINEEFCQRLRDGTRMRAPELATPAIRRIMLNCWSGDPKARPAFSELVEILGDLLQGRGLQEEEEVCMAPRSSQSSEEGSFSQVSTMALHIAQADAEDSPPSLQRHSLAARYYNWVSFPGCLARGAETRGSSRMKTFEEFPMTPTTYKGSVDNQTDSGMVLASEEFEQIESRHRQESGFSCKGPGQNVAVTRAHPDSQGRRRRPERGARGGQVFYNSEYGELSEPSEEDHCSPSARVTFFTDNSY

MLCK(h) = format: biochemical, human; details: 100 μM
Pim-2(h) = Pim-2(h) (Homo sapiens, UniProt Q9P1W9); format: biochemical; details: 100 μM
Sequence of Pim-2(h) (Q9P1W9 whole entry): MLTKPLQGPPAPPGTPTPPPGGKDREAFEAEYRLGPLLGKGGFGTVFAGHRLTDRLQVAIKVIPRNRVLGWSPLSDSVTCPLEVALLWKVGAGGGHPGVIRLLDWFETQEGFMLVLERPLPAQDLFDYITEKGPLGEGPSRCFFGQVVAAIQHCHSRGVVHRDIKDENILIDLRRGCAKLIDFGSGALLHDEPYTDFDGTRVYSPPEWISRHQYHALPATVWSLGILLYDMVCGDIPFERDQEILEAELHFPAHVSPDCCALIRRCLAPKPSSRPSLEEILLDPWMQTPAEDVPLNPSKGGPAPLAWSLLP

CaMKIIδ(h) = CaMKIIδ(h) (Homo sapiens, UniProt Q13557); format: biochemical; details: 100 μM
Sequence of CaMKIIδ(h) (Q13557 whole entry): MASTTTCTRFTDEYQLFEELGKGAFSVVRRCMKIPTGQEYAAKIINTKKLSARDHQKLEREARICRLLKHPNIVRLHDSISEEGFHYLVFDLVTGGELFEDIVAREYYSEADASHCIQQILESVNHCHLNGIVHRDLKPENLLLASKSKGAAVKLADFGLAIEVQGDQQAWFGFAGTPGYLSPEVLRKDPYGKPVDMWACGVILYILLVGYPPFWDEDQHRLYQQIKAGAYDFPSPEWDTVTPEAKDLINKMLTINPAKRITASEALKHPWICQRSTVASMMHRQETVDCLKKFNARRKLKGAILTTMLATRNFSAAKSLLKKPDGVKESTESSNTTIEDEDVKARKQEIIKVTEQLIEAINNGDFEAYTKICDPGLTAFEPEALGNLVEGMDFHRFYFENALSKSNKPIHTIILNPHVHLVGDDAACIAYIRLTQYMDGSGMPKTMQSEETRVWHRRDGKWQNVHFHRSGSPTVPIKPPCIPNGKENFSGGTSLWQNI

PKCγ(h) = PKCγ(h) (Homo sapiens, UniProt P05129); format: biochemical; details: 100 μM
DYRK2(h) = biological target: T2, DYRK2(h) (Homo sapiens, UniProt Q92630); format: biochemical; details: 100 μM
T2 sequence (Q92630 1-601): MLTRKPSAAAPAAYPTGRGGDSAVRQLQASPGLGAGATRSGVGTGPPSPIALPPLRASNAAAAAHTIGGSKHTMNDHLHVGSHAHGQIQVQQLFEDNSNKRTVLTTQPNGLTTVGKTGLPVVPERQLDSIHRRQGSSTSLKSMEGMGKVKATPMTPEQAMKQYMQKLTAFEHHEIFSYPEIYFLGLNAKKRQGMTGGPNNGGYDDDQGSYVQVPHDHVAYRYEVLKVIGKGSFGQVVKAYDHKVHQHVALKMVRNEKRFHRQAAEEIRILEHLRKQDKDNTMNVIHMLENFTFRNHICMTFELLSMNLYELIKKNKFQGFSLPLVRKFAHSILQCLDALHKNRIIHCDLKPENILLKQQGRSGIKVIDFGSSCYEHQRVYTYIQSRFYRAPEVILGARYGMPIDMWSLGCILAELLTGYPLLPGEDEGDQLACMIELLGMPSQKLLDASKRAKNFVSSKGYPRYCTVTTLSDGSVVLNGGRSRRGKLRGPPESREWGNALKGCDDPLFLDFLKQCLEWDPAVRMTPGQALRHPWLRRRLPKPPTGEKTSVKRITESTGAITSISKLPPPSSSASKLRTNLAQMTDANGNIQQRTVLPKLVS

cKit(D816V)(h) = cKit(D816V)(h) (Homo sapiens, UniProt P10721, D816V); format: biochemical; details: 100 μM
SAPK3(h) = biological target: T3, SAPK3(h) (Homo sapiens, UniProt P53778); format: biochemical; details: 100 μM
T3 sequence (P53778 1-367): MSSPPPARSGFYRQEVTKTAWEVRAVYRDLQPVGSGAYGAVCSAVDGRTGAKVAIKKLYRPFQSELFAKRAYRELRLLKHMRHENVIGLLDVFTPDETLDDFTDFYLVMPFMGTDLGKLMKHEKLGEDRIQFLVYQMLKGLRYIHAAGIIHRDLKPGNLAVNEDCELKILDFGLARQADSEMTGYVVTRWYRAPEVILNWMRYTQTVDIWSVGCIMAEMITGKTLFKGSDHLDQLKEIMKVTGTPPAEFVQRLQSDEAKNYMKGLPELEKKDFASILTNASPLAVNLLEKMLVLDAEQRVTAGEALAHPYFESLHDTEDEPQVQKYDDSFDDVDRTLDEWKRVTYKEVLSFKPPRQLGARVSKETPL

Pyk2(h) = Pyk2(h) (Homo sapiens, UniProt Q14289); format: biochemical; details: 100 μM
Sequence of Pyk2(h) (Q14289 whole entry): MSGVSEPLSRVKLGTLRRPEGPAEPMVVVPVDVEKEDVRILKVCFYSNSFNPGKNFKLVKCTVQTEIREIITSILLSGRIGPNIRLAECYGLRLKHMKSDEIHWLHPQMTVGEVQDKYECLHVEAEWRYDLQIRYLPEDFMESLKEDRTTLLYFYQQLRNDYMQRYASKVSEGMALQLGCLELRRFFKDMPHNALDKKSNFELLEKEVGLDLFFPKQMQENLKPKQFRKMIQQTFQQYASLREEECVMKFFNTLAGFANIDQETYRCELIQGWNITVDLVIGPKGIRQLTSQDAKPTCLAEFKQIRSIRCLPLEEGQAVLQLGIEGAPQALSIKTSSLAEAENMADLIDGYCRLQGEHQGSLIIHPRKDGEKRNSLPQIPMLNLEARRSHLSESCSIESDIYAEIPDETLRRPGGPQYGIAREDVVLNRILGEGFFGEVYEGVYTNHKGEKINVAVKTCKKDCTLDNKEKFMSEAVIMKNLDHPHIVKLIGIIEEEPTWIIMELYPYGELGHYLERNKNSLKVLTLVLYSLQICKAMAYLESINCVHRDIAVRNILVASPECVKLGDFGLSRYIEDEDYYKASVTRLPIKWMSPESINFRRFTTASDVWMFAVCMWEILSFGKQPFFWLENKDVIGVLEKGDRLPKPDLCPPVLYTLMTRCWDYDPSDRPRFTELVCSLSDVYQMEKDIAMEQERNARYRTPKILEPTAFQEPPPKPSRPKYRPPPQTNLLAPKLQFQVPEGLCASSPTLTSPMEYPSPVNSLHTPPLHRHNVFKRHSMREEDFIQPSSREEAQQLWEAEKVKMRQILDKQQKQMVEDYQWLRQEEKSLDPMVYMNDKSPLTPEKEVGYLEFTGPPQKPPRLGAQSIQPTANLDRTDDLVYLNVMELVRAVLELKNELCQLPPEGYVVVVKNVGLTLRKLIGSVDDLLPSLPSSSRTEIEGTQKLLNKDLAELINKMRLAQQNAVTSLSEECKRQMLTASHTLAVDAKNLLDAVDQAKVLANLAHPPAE

mTOR(h) = mTOR(h) (Homo sapiens, UniProt P42345); format: biochemical; details: 100 μM
EGFR(T790M,L858R)(h) = EGFR(T790M,L858R)(h) (Homo sapiens, UniProt P00533, L858R/T790M); format: biochemical; details: 100 μM
TLK2(h) = TLK2(h) (Homo sapiens, UniProt Q86UE8); format: biochemical; details: 100 μM
Sequence of TLK2(h) (Q86UE8 whole entry): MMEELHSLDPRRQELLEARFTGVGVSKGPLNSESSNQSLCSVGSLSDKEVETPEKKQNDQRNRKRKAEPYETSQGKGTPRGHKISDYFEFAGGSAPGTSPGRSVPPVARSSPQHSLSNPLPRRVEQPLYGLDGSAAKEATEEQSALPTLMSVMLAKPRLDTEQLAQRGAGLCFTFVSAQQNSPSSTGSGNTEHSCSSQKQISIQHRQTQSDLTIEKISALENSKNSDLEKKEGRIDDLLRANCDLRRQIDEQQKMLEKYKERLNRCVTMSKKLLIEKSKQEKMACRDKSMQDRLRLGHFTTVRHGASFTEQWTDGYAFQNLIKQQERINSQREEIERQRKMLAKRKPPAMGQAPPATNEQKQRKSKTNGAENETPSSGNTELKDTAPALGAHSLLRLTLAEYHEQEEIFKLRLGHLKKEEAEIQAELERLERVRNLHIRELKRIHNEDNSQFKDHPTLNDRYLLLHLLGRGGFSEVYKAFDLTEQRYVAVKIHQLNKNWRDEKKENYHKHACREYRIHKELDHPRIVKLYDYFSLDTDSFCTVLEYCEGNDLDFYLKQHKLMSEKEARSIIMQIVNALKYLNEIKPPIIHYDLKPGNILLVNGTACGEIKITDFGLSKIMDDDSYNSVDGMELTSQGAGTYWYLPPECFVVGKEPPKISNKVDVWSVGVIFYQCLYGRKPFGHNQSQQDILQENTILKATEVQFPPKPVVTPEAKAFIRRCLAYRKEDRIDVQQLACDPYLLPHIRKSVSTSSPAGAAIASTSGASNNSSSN

Rsk2(h) = Rsk2(h) (Homo sapiens, UniProt P51812); format: biochemical; details: 100 μM
Fes(h) = Fes(h) (Homo sapiens, UniProt P07332); format: biochemical; details: 100 μM
Sequence of Fes(h) (P07332 whole entry): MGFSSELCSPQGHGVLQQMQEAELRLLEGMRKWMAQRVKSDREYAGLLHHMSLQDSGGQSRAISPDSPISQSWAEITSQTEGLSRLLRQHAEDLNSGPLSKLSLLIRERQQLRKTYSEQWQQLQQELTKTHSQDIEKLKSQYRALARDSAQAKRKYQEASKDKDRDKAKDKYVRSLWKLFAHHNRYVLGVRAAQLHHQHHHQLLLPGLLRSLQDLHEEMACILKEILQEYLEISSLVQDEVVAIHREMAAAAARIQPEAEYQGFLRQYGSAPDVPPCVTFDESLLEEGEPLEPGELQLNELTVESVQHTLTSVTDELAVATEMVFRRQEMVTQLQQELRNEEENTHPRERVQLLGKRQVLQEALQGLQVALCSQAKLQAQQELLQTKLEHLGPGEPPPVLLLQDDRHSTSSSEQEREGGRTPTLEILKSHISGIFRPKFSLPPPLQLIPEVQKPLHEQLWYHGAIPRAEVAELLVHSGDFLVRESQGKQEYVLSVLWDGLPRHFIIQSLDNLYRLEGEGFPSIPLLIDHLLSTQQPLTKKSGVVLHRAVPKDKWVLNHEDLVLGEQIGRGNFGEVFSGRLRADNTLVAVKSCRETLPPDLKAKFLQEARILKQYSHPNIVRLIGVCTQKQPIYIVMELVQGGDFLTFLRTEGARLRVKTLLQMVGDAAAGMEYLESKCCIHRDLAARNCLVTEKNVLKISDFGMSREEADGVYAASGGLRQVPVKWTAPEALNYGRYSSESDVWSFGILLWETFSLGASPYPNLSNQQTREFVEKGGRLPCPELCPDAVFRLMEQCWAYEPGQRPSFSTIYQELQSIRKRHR

H-YARAAARQARAKALARQLGVAA-OH [MMI-0100]
activity at 100 µM (NLK(h)): 100%
activity at 100 µM (HIPK2(h)): 98%
activity at 100 µM (Flt4(h)): 135%

HRRIKAWLKKIKALARQLGVAA (Mammalian) [MMI-0500]
% activity (MLCK(h)): 0%
% activity (Pim-2(h)): 46%
% activity (CaMKIIδ(h)): 1%
% activity (PKCγ(h)): 6%
% activity (NLK(h); 100 μM): 19%
% activity (DYRK2(h)): 127%
% activity (cKit(D816V)(h)): 30%
% activity (SAPK3(h)): 24%
% activity (Pyk2(h)): 46%
% activity (HIPK2(h); 100 μM): 38%
% activity (mTOR(h)): 135%
% activity (EGFR(T790M,L858R)(h)): 53%
% activity (TLK2(h)): 133%
% activity (Rsk2(h)): 14%
% activity (Fes(h)): 23%
% activity (Flt4(h); 100 μM): 73%

YARAAARQARAKALNRQLGVA (Mammalian) [MMI-0200]
% activity (MLCK(h)): 103%
% activity (Pim-2(h)): 74%
% activity (CaMKIIδ(h)): 2%
% activity (PKCγ(h)): 101%
% activity (DYRK2(h)): 142%
% activity (cKit(D816V)(h)): 118%
% activity (SAPK3(h)): 97%
% activity (Pyk2(h)): 127%
% activity (mTOR(h)): 110%
% activity (EGFR(T790M,L858R)(h)): 108%
% activity (TLK2(h)): 129%
% activity (Rsk2(h)): 101%
% activity (Fes(h)): 74%
